Experimental findings from patent publication US20220380478A1 (TONIX PHARMA, published 2022) are described below.

In test [1] the target is T1, CD16aF (FcγRIIIaF) (UniProt P08637 17-208). Briefly: SPR (Biacore T200); mAb captured on Protein A, FcγR injected; steady-state affinity. In general terms: Surface plasmon resonance follows binding to a sensor surface in real time, without labels.
Description: The analytes were antigens in the FcγR panel (CD16aF, CD16aV, CD32aH, CD32bF; National Research Council, Canada), which were resuspended in PBST containing 3.4 mM EDTA and 0.05% Tween20.
Test [2] addresses T2, FcγRIA (CD64) (UniProt P12314 16-292, limits assumed).
T2 construct: also called FcgRIa; FcγR1A
Briefly: SPR (Biacore T200); mAb captured on Protein A, FcγRIA injected.
Description: (§1) Specifically, FcγRIA was injected over anti-CD154 antibody pools immobilized onto a Protein A surface (2,000 Rus; Cat #Z02201 […] ®, Piscataway, N.J.), using PBST pH 7.4 (PBS with 0.05% Tween 20) as the running buffer. […] The regeneration was conducted with 1×60s 10 mM glycine pH 1.5, flow 30 μL/min.

Test [3] deals with T2, FcγRIA (CD64). Briefly: SPR (Biacore T200), FcγRIA binding; run with TNX06-TNX13.
In test [4] the target is T2, FcγRIA (CD64). Briefly: SPR (Biacore T200); mAb captured on Protein A, FcγRIA injected; run with TNX01-TNX05.
Description: as §1
In test [5] the target is T2, FcγRIA (CD64). Briefly: SPR (Biacore T200); mAb captured on Protein A, FcγRIA injected; steady-state end-point analysis.
Description: as §1
For test [6], the target named is T2, FcγRIA (CD64). Briefly: SPR (Biacore T200), FcγRIA binding.
The target of the next test is T3, CD32aH (FcγRIIaH) (UniProt P12318 34-217).
T3 sequence (looked up): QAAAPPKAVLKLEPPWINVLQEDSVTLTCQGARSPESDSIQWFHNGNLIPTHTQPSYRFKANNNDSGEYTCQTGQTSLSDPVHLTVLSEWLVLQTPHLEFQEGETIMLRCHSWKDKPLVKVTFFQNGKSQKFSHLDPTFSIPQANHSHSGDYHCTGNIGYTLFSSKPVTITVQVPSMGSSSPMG
Briefly: SPR (Biacore T200), low-affinity FcγR panel.

A further test concerns the target CD16aV (FcγRIIIaV) (UniProt P08637 17-208). Briefly: SPR (Biacore T200), low-affinity FcγR panel.
In test [7] the target is T1, CD16aF (FcγRIIIaF). Briefly: SPR (Biacore T200), low-affinity FcγR panel.

T2 sequence (P12314 16-292 limits assumed): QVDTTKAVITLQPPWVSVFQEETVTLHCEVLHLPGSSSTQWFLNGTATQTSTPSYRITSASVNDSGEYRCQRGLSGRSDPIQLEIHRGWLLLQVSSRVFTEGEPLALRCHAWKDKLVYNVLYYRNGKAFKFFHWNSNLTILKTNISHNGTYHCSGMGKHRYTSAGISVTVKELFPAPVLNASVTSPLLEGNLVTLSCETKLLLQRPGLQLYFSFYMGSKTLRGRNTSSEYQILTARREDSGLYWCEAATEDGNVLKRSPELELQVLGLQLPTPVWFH
T1 sequence (P08637 17-208): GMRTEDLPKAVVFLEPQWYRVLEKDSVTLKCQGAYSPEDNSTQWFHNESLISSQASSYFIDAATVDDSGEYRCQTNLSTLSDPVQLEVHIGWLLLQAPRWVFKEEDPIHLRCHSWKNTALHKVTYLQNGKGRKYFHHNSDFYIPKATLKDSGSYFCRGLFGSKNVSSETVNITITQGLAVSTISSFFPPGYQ
Sequence of CD16aV (FcγRIIIaV) (P08637 17-208 F176V): as the sequence (P08637 17-208) above, with F160V counted along it

B1: TNX05 anti-CD154 monoclonal antibody (antibody, human IgG4 S228P, kappa)
heavy: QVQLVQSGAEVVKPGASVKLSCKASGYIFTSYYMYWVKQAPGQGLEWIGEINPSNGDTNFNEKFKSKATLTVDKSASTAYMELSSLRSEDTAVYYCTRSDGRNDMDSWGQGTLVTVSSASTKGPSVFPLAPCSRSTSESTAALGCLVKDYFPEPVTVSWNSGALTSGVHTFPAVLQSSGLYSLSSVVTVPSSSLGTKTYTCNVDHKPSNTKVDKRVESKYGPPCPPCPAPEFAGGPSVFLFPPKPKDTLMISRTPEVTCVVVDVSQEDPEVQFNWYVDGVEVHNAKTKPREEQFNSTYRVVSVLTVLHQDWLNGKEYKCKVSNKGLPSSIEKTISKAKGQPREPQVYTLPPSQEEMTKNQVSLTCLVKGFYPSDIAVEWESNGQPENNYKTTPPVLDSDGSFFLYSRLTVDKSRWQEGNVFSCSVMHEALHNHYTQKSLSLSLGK
light: DIVLTQSPATLSVSPGERATISCRASQRVSSSTYSYMHWYQQKPGQPPKLLIKYASNLESGVPARFSGSGSGTDFTLTISSVEPEDFATYYCQHSWEIPPTFGGGTKLEIKRTVAAPSVFIFPPSDEQLKSGTASVVCLLNNFYPREAKVQWKVDNALQSGNSQESVTEQDSKDSTYSLSSTLTLSKADYEKHKVYACEVTHQGLSSPVTKSFNRGEC
notes: also called hu5c8 mutated-IgG4 (IgG4 S228P/L235A)
Regarding B1, the binding result with CD16aF (FcγRIIIaF) [1] is on record as “binds”. In addition, in the test with FcγRIA (CD64) [2], the “fold loss of activity (against TNX02)” value was 300 fold.

B2: TNX02 anti-CD154 monoclonal antibody (antibody, human IgG1, kappa)
heavy: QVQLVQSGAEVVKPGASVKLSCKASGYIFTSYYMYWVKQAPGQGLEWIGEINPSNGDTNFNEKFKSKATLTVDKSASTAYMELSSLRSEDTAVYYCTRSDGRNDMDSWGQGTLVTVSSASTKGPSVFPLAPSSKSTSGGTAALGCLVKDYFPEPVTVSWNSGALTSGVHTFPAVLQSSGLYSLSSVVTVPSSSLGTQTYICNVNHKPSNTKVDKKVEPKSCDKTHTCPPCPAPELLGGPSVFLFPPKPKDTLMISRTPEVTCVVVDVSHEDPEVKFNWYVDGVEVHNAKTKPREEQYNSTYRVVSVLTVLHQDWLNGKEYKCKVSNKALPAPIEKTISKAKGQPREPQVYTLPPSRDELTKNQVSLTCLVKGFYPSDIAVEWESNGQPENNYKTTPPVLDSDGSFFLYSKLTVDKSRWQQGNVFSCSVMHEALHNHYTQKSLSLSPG
light: DIVLTQSPATLSVSPGERATISCRASQRVSSSTYSYMHWYQQKPGQPPKLLIKYASNLESGVPARFSGSGSGTDFTLTISSVEPEDFATYYCQHSWEIPPTFGGGTKLEIKRTVAAPSVFIFPPSDEQLKSGTASVVCLLNNFYPREAKVQWKVDNALQSGNSQESVTEQDSKDSTYSLSSTLTLSKADYEKHKVYACEVTHQGLSSPVTKSFNRGEC
notes: also called IgG1 (wildtype)
Take B2: in the test with CD16aF (FcγRIIIaF) [1], the binding result is given as “binds”. The results for the Kd with FcγRIA (CD64) [3] and with FcγRIA (CD64) [4] were about 0.04 nM and about 0.03 nM, respectively.

B3: TNX01 anti-CD154 monoclonal antibody (antibody, human IgG1, kappa, N297Q)
heavy: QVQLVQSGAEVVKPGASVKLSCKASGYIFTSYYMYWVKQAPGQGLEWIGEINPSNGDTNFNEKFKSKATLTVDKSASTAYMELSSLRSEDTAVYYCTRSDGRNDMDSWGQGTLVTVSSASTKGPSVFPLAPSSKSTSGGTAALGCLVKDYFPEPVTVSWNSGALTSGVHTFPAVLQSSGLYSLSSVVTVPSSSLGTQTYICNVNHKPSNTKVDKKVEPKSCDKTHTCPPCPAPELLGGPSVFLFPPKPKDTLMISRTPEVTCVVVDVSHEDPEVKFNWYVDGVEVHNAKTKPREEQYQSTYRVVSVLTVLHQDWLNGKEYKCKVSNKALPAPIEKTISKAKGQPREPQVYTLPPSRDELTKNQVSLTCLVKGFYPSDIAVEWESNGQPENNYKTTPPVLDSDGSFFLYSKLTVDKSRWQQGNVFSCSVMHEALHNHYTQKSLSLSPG
light: DIVLTQSPATLSVSPGERATISCRASQRVSSSTYSYMHWYQQKPGQPPKLLIKYASNLESGVPARFSGSGSGTDFTLTISSVEPEDFATYYCQHSWEIPPTFGGGTKLEIKRTVAAPSVFIFPPSDEQLKSGTASVVCLLNNFYPREAKVQWKVDNALQSGNSQESVTEQDSKDSTYSLSSTLTLSKADYEKHKVYACEVTHQGLSSPVTKSFNRGEC
notes: also called IgG1 (N297Q)
Turning to B3, in the test with FcγRIA (CD64) [5], the “fold loss of activity (against TNX02)” value stood at 3000 fold.

B4: TNX13 anti-CD154 monoclonal antibody (antibody, human IgG1, kappa)
heavy: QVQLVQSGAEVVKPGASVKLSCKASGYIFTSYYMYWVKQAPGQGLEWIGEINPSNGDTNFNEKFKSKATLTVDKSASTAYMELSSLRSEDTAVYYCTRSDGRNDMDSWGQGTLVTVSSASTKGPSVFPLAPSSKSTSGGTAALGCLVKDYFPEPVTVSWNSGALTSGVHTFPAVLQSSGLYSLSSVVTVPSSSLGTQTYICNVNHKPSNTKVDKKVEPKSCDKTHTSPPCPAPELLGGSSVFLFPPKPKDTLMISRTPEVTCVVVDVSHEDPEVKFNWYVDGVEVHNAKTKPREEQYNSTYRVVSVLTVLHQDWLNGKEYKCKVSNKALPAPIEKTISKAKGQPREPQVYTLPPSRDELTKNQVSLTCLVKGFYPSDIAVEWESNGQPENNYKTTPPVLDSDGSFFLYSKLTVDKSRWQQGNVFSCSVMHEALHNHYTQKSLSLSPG
light: DIVLTQSPATLSVSPGERATISCRASQRVSSSTYSYMHWYQQKPGQPPKLLIKYASNLESGVPARFSGSGSGTDFTLTISSVEPEDFATYYCQHSWEIPPTFGGGTKLEIKRTVAAPSVFIFPPSDEQLKSGTASVVCLLNNFYPREAKVQWKVDNALQSGNSQESVTEQDSKDSTYSLSSTLTLSKADYEKHKVYACEVTHQGLSSPVTKSFNRGEC
notes: also called IgG1 (C226S, P238S)
In the case of B4, the binding result with FcγRIA (CD64) [6] is listed as “binds”; with CD16aV (FcγRIIIaV), “no binding”; with CD16aF (FcγRIIIaF) [7], “no binding”. Besides, the “fold loss of binding activity (against TNX02)” value in the test with CD32aH (FcγRIIaH) was determined as 17 fold.

B5: TNX06 anti-CD154 monoclonal antibody (antibody, human IgG4, kappa)
heavy: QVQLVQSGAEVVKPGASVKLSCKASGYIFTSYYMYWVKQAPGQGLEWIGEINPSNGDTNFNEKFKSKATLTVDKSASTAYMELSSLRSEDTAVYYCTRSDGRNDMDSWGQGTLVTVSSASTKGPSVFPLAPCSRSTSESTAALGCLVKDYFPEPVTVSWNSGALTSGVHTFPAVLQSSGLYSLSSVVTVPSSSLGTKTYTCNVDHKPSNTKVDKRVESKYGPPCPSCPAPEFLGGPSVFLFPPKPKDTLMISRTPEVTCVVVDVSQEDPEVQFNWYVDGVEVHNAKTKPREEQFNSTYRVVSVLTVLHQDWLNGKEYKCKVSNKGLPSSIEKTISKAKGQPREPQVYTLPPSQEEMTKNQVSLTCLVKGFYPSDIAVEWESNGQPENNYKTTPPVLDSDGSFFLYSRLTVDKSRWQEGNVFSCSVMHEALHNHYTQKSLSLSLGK
light: DIVLTQSPATLSVSPGERATISCRASQRVSSSTYSYMHWYQQKPGQPPKLLIKYASNLESGVPARFSGSGSGTDFTLTISSVEPEDFATYYCQHSWEIPPTFGGGTKLEIKRTVAAPSVFIFPPSDEQLKSGTASVVCLLNNFYPREAKVQWKVDNALQSGNSQESVTEQDSKDSTYSLSSTLTLSKADYEKHKVYACEVTHQGLSSPVTKSFNRGEC
notes: also called IgG4 Wild Type
For the molecule B5, the binding result with FcγRIA (CD64) [6] and with CD16aF (FcγRIIIaF) [7] was “binds” each time.

B6: TNX11 anti-CD154 monoclonal antibody (antibody, human IgG1, kappa)
heavy: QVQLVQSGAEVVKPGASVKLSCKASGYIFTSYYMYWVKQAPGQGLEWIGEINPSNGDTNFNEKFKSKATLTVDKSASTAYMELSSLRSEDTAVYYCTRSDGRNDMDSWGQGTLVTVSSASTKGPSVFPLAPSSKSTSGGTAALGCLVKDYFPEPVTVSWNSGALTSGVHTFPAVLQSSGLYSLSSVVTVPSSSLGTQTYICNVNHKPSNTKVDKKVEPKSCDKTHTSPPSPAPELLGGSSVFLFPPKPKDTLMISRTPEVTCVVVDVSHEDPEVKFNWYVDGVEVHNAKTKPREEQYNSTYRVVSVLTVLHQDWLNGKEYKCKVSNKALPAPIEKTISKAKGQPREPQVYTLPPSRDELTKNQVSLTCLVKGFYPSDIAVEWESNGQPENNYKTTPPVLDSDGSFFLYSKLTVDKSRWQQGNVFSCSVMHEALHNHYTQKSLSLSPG
light: DIVLTQSPATLSVSPGERATISCRASQRVSSSTYSYMHWYQQKPGQPPKLLIKYASNLESGVPARFSGSGSGTDFTLTISSVEPEDFATYYCQHSWEIPPTFGGGTKLEIKRTVAAPSVFIFPPSDEQLKSGTASVVCLLNNFYPREAKVQWKVDNALQSGNSQESVTEQDSKDSTYSLSSTLTLSKADYEKHKVYACEVTHQGLSSPVTKSFNRGEC
notes: also called IgG1 (C226S, C229S, P238S)
With B6, in the test with FcγRIA (CD64) [6], the binding result was “binds”.

B7: TNX12 anti-CD154 monoclonal antibody (antibody, human IgG1, kappa)
heavy: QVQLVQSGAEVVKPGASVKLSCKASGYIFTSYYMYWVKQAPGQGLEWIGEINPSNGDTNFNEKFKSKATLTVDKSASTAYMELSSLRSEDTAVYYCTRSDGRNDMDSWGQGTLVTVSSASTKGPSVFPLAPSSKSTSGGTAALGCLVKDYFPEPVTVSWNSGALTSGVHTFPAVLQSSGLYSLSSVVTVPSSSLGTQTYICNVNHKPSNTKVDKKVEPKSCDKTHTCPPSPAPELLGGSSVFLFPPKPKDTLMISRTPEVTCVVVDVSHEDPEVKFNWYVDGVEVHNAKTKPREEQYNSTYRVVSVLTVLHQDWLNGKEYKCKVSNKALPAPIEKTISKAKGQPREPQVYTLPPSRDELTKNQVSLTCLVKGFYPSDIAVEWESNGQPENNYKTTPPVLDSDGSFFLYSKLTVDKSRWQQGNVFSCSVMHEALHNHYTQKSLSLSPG
light: DIVLTQSPATLSVSPGERATISCRASQRVSSSTYSYMHWYQQKPGQPPKLLIKYASNLESGVPARFSGSGSGTDFTLTISSVEPEDFATYYCQHSWEIPPTFGGGTKLEIKRTVAAPSVFIFPPSDEQLKSGTASVVCLLNNFYPREAKVQWKVDNALQSGNSQESVTEQDSKDSTYSLSSTLTLSKADYEKHKVYACEVTHQGLSSPVTKSFNRGEC
notes: also called IgG1 (C229S, P238S)
In the case of B7, the binding result in the test with FcγRIA (CD64) [6] is on record as “binds”; with CD32aH (FcγRIIaH), “no binding”; with CD16aV (FcγRIIIaV), “no binding”; in the test with CD16aF (FcγRIIIaF) [7], “no binding”.

B8: TNX09 anti-CD154 monoclonal antibody (antibody, human IgG4 S228P, kappa, F234A L235A)
heavy: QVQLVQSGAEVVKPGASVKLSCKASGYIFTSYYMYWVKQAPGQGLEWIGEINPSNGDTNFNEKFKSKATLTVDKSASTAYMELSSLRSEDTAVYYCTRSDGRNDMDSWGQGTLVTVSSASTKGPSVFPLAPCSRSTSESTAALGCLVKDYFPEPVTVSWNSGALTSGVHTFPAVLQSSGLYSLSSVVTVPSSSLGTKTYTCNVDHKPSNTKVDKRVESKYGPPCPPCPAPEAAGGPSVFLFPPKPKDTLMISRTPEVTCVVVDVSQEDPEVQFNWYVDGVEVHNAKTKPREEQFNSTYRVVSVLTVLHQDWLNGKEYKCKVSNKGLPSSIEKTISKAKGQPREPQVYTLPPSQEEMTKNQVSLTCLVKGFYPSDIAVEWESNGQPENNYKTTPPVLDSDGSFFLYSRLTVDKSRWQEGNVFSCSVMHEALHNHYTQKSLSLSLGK
light: DIVLTQSPATLSVSPGERATISCRASQRVSSSTYSYMHWYQQKPGQPPKLLIKYASNLESGVPARFSGSGSGTDFTLTISSVEPEDFATYYCQHSWEIPPTFGGGTKLEIKRTVAAPSVFIFPPSDEQLKSGTASVVCLLNNFYPREAKVQWKVDNALQSGNSQESVTEQDSKDSTYSLSSTLTLSKADYEKHKVYACEVTHQGLSSPVTKSFNRGEC
notes: also called IgG4 (S228P, F234A, L235A)
With B8, in the test with FcγRIA (CD64) [6], the “fold weaker binding than TNX02” value was 3800 fold. Besides, the binding result with CD32aH (FcγRIIaH) and in the test with CD16aF (FcγRIIIaF) [7] was “no binding” in each case. The “fold loss (against TNX02)” value with CD16aV (FcγRIIIaV) is about 12 fold.

B9: TNX03 anti-CD154 monoclonal antibody (antibody, human IgG1, kappa, N297G)
heavy: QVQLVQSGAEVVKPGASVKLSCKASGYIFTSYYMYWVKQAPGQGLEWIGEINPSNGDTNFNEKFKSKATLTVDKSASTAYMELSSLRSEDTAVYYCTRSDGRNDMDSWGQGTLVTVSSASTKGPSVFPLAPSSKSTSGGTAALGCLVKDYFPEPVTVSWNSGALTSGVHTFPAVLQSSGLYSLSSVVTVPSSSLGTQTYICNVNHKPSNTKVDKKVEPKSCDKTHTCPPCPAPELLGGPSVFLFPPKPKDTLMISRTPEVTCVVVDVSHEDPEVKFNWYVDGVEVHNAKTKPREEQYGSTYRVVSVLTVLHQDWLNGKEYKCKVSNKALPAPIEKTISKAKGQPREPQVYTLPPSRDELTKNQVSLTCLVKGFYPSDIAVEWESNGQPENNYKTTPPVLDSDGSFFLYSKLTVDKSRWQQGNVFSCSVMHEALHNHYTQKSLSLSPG
light: DIVLTQSPATLSVSPGERATISCRASQRVSSSTYSYMHWYQQKPGQPPKLLIKYASNLESGVPARFSGSGSGTDFTLTISSVEPEDFATYYCQHSWEIPPTFGGGTKLEIKRTVAAPSVFIFPPSDEQLKSGTASVVCLLNNFYPREAKVQWKVDNALQSGNSQESVTEQDSKDSTYSLSSTLTLSKADYEKHKVYACEVTHQGLSSPVTKSFNRGEC
notes: also called IgG1 (N297G)
In the case of B9, the “fold loss of activity (against TNX02)” value in the test with FcγRIA (CD64) [5] stood at 3000 fold.

B10: TNX10 anti-CD154 monoclonal antibody (antibody, human IgG1, kappa, L234A L235A)
heavy: not shown
light: DIVLTQSPATLSVSPGERATISCRASQRVSSSTYSYMHWYQQKPGQPPKLLIKYASNLESGVPARFSGSGSGTDFTLTISSVEPEDFATYYCQHSWEIPPTFGGGTKLEIKRTVAAPSVFIFPPSDEQLKSGTASVVCLLNNFYPREAKVQWKVDNALQSGNSQESVTEQDSKDSTYSLSSTLTLSKADYEKHKVYACEVTHQGLSSPVTKSFNRGEC
notes: also called IgG1 (L234A, L235A)
B10: in the test with FcγRIA (CD64) [6], the “fold weaker binding than TNX02” value worked out at 1800 fold. The binding result with CD32aH (FcγRIIaH) and with CD16aF (FcγRIIIaF) [7] was “no binding” each time. Further, the “fold loss (against TNX02)” value in the test with CD16aV (FcγRIIIaV) is about 12 fold.

B11: TNX08 anti-CD154 monoclonal antibody (antibody, human IgG4 S228P, kappa)
heavy: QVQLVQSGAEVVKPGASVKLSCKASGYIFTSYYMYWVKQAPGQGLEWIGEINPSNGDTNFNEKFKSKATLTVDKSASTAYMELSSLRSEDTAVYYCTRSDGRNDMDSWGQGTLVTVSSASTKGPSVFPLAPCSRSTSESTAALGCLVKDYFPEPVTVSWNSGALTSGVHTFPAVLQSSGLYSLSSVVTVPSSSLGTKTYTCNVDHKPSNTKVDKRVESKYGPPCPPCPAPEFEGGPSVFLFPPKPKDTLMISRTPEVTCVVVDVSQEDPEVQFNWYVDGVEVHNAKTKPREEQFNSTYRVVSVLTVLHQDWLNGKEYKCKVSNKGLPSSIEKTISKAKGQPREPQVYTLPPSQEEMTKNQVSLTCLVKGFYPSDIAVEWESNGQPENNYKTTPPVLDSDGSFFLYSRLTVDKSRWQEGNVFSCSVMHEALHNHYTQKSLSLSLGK
light: DIVLTQSPATLSVSPGERATISCRASQRVSSSTYSYMHWYQQKPGQPPKLLIKYASNLESGVPARFSGSGSGTDFTLTISSVEPEDFATYYCQHSWEIPPTFGGGTKLEIKRTVAAPSVFIFPPSDEQLKSGTASVVCLLNNFYPREAKVQWKVDNALQSGNSQESVTEQDSKDSTYSLSSTLTLSKADYEKHKVYACEVTHQGLSSPVTKSFNRGEC
notes: also called IgG4 (S228P, L235E)
As for B11, the “fold weaker binding than TNX02” value with FcγRIA (CD64) [6] amounted to 2600 fold. Besides, the binding result with CD16aF (FcγRIIIaF) [7] was “binds”.

B12: TNX04 anti-CD154 monoclonal antibody (antibody)
heavy: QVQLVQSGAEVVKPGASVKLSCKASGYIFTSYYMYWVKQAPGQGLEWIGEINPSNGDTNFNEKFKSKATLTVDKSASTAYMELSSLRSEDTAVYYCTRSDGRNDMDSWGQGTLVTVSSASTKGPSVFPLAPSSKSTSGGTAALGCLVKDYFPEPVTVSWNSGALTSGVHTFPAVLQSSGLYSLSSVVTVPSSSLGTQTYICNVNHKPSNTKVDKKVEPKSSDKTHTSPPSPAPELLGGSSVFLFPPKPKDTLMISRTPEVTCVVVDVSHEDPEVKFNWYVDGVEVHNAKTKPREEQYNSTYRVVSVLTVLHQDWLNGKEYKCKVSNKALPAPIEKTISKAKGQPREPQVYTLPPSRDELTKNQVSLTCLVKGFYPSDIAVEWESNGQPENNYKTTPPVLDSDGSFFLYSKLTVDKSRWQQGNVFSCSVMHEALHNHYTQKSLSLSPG
light: DIVLTQSPATLSVSPGERATISCRASQRVSSSTYSYMHWYQQKPGQPPKLLIKYASNLESGVPARFSGSGSGTDFTLTISSVEPEDFATYYCQHSWEIPPTFGGGTKLEIKRTVAAPSVFIFPPSDEQLKSGTASVVCLLNNFYPREAKVQWKVDNALQSGNSQESVTEQDSKDSTYSLSSTLTLSKADYEKHKVYACEVTHQGLSSPVTKSFNRGEC
notes: also called IgG1 (C220S, C226S, C229S, P238S)
Consider B12, for which, in the test with CD16aF (FcγRIIIaF) [1], the binding result is recorded as “no binding (tested: 12 µM to 0.062 µM)”. For the same molecule, the “fold loss of activity (against TNX02)” value with FcγRIA (CD64) [2] turned out to be 11 fold.
